{"source": "paper PMC4539046", "about": "(Neuropharmacology, 2015)", "binders": {"B1": {"name": "His-nNOS(1–299) (domain or fragment, UniProt P29476-1 1-299, looked up)", "chain": "MEENTFGVQQIQPNVISVRLFKRKVGGLGFLVKERVSKPPVIISDLIRGGAAEQSGLIQAGDIILAVNDRPLVDLSYDSALEVLRGIASETHVVLILRGPEGFTTHLETTFTGDGTPKTIRVTQPLGPPTKAVDLSHQPSASKDQSLAVDRVTGLGNGPQHAQGHGQGAGSVSQANGVAIDPTMKSTKANLQDIGEHDELLKEIEPVLSILNSGSKATNRGGPAKAEMKDTGIQVDRDLDGKSHKAPPLGGDNDRVFNDLWGKDNVPVILNNPYSEKEQSPTSGKQSPTKNGSPSRCPR"}, "B2": {"name": "nNOS(1–130) without any tag (domain or fragment, UniProt P29476-1 1-130, looked up)", "chain": "MEENTFGVQQIQPNVISVRLFKRKVGGLGFLVKERVSKPPVIISDLIRGGAAEQSGLIQAGDIILAVNDRPLVDLSYDSALEVLRGIASETHVVLILRGPEGFTTHLETTFTGDGTPKTIRVTQPLGPPT"}}, "assay_in_all_cases": "AlphaScreen or HTRF", "key": {"[1]": {"molecular_target": "T1, GST-PSD95(1–392) (UniProt P31016 1-392)"}, "[2]": {"molecular_target": "His-PSD95(1–392) (UniProt P31016 1-392)"}, "[3]": {"molecular_target": "T1, GST-PSD95(1–392)", "remark": "listed apart in the source"}}, "note": "Where no end group is shown, it is not given here.", "data": [{"binder": "B1", "values": [{"measurement": "EC50", "setting": "[1]", "value": 0.03, "unit": "µM"}]}, {"binder": "SLKPGTVLPPPPYRHRNTVV (peptide, UniProt Q15303 1289-1308, looked up, not fully specified (N-terminus); also: biotin (position not given here))", "note": "[Biot-ErbB4(1289–1308)]", "values": [{"measurement": "EC50", "setting": "[2]", "value": 0.01, "unit": "µM"}]}, {"binder": "B2", "values": [{"measurement": "IC50", "setting": "[3]", "value": 0.03, "unit": "µM"}]}]}
